B1: 3xFLAG-MCP-NSP3 (other)
chain: MDYKDHDGDYKDHDIDYKDDDDKASNFTQFVLVDNGGTGDVTVAPSNFANGVAEWISSNSRSQAYKVTCSVRQSSAQKRKYTIKVEVPKVATQTVGGVELPVAAWRSYLNMELTIPIFATNSDCELIVKAMQGLLKDGNPIPSAIAANSGIYASGSGGGGDVMLKMESTQQMASSIINTSFEAAVVAATSTLELMGIQYDYNEVYTRVKSKFDYVMDDSGVKNNLLGKAATIDQALNGKFGSAARNRNWMADTRTTARLDEDVNKLRMMLSSKGIDQKMRVLNACFNVKRVPGKSSSIIKCTRLMRDKIERGEVEVDDSFVEEKMEVDTIDWKSRYEQLEKRFESLKQRVNEKYTSWVQKAKKVNENMYSLQNVISQQQSQIADLQNYCNKLEVDLQNKISSLVSSVEWYLKSMELPDEIKTDIEQQLNSIDVINPINAIDDFESLIRNIILDYDRIFLMFKGLMRQCNYEYTYE
notes: also called 3×FLAG-tagged MCP-NSP3; pSL1083
B2: 3xFLAG-MCP-ABI(iDab) (VHH)
chain: MDYKDHDGDYKDHDIDYKDDDDKASNFTQFVLVDNGGTGDVTVAPSNFANGVAEWISSNSRSQAYKVTCSVRQSSAQKRKYTIKVEVPKVATQTVGGVELPVAAWRSYLNMELTIPIFATNSDCELIVKAMQGLLKDGNPIPSAIAANSGIYASGSGGGGDVGSEVQLLESGGGLVQPGGSLRLSCAASGFTFSTFSMNWVRQAPGKGLEWVSYISKCGHVIYYADSVKGRFTISRDNSKNTLYLQMNSLRAEDTAVYYCARGPLWSFVRMSFDYWGQGTLVTVSSAS
notes: also called 3×FLAG-tagged MCP-ABI (iDab)3; 3xFLAG-MCP-(ABI(iDab))3
B3: 3xFLAG-MCP (other)
chain: MDYKDHDGDYKDHDIDYKDDDDKASNFTQFVLVDNGGTGDVTVAPSNFANGVAEWISSNSRSQAYKVTCSVRQSSAQKRKYTIKVEVPKVATQTVGGVELPVAAWRSYLNMELTIPIFATNSDCELIVKAMQGLLKDGNPIPSAIAANSGIY
notes: also called 3×FLAG-tagged MCP; pSL1084
B4: 3xHA-CCmut3-NSP3 (designed binder)
chain: MVDPVGFAEAWKAQFPDSEPPRMELRSVGDIEQELERAEARIRRNEQRVNQERFRMIYLETLLAKEKKSYDRASGSGGGGDVASMLKMESTQQMASSIINTSFEAAVVAATSTLELMGIQYDYNEVYTRVKSKFDYVMDDSGVKNNLLGKAATIDQALNGKFGSAARNRNWMADTRTTARLDEDVNKLRMMLSSKGIDQKMRVLNACFNVKRVPGKSSSIIKCTRLMRDKIERGEVEVDDSFVEEKMEVDTIDWKSRYEQLEKRFESLKQRVNEKYTSWVQKAKKVNENMYSLQNVISQQQSQIADLQNYCNKLEVDLQNKISSLVSSVEWYLKSMELPDEIKTDIEQQLNSIDVINPINAIDDFESLIRNIILDYDRIFLMFKGLMRQCNYEYTYEYPYDVPDYAYPYDVPDYAYPYDVPDYA
notes: also called 3×HA-tagged CCmut3-NSP3; pSL1102

How the values were obtained:
endogenous eIF4G = endogenous eIF4G (human (endogenous in HEK-293 cells), UniProt Q04637 1-1599); assay: anti-Flag co-IP from HEK-293 lysate, Western blot with anti-eIF4G (FIG. 6A)
endogenous eIF4G, sequence (Q04637 whole entry): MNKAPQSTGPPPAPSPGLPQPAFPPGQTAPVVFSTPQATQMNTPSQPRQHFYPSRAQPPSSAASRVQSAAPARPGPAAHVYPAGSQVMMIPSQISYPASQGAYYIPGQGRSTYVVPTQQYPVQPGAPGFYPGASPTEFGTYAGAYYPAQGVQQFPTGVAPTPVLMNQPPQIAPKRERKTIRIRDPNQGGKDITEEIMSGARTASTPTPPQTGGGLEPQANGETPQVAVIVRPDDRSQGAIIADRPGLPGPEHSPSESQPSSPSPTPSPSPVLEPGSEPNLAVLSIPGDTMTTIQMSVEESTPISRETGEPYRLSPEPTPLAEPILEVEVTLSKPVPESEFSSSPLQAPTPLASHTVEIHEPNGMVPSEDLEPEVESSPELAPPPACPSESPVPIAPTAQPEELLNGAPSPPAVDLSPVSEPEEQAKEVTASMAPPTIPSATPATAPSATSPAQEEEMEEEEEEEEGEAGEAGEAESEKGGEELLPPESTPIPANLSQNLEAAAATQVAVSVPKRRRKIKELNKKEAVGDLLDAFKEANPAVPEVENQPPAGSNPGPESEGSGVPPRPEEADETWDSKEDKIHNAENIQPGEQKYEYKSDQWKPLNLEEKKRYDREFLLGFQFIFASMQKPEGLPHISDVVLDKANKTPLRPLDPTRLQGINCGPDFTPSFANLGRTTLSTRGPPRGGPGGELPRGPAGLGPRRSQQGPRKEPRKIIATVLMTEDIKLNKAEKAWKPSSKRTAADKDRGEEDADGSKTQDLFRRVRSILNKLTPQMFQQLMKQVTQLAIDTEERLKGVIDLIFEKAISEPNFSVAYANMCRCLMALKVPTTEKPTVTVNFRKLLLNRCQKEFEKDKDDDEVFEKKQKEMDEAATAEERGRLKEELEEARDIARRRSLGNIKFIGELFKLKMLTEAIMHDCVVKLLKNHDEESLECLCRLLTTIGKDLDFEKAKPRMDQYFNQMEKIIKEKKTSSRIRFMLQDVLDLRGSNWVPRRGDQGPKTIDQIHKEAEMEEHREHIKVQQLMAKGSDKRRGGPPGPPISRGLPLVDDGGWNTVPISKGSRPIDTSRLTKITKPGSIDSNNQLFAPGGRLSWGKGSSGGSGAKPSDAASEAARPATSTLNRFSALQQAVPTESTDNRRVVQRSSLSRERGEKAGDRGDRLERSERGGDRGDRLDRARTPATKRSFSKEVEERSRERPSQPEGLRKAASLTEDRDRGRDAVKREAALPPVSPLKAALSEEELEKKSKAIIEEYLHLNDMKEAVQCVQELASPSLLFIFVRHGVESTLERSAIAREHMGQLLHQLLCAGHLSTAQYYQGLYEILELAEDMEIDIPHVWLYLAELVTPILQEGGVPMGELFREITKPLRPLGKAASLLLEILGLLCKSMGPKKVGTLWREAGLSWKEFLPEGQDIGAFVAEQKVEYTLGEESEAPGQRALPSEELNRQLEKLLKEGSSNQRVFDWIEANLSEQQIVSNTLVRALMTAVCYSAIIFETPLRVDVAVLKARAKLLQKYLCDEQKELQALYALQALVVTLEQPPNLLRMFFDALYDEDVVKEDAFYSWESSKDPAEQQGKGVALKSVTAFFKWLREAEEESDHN

BCR-ABL = target: T1, BCR-ABL
T1 construct: Overexpressed in HEK-293 cells; also called BCR-ABL oncoprotein; BCR-ABL fusion protein

endogenous eIF4E = endogenous eIF4E (human (endogenous in HEK-293 cells), UniProt P06730 2-217); assay: anti-Flag co-IP from HEK-293 lysate, Western blot with anti-eIF4E (FIG. 6A)
endogenous eIF4E, sequence (P06730 2-217 limits assumed): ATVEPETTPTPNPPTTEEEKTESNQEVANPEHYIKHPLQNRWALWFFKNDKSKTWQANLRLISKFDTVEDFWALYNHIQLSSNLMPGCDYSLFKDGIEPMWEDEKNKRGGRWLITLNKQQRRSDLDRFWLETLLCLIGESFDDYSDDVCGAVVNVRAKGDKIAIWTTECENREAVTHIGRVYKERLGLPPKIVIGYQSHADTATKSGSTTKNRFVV

Binder	binding result (endogenous eIF4G)	binding result (BCR-ABL)	binding result (endogenous eIF4E)
B1	binds	–	–
B2	–	binds	–
B3	no binding	–	no binding
B4	–	binds	–
